# Assay results reported in patent US20220332795A1.
# Positions count from the first letter of the chain named.
# B1: SEQ ID NO 222 (designed binder, not shown: small tags and cut ends)
# chain: MLPAPKNLVVSRVTEDSARLSWTAPDAAFDSFFIGYLEPQPPGEAIVLDVPGSERSYDLTGLKPGTEYNVTIQGVKGGFPSHPLAAAFTT
# B2: SEQ ID NO 231 (designed binder, not shown: small tags and cut ends)
# chain: B1 chain with V47H, D49Y, H82D, A85D, A87V
# B3: SEQ ID NO 223 (designed binder, not shown: small tags and cut ends)
# chain: B1 chain with V47G, D49A, H82V, A85Q, A87N
# B4: SEQ ID NO 235 (designed binder, not shown: small tags and cut ends)
# chain: B1 chain with V47Q, D49T, H82L, A85S, A87D
# B5: SEQ ID NO 211 (designed binder, not shown: small tags and cut ends)
# chain: MLPAPKNLVVSRVTEDSARLSWTAPDAAFDSFYIAYAEPRPDGEAIQLHVPGSERSYDLTGLKPGTEYSVLIHGVKGGLLSSPLVAIFTT
# B6: SEQ ID NO 225 (designed binder, not shown: small tags and cut ends)
# chain: B5 chain with Q47L, H49Q, V85S, I87S
# B7: SEQ ID NO 227 (designed binder, not shown: small tags and cut ends)
# chain: B5 chain with Q47G, H49R, V85S
# B8: SEQ ID NO 214 (designed binder, not shown: small tags and cut ends)
# chain: B5 chain with Q47G, H49Q, V85C, I87E
# B9: SEQ ID NO 228 (designed binder, not shown: small tags and cut ends)
# chain: B5 chain with Q47V, H49R, V85A, I87S
# B10: SEQ ID NO 215 (designed binder, not shown: small tags and cut ends)
# chain: B5 chain with Q47V, H49W, V85I, I87E
# B11: SEQ ID NO 226 (designed binder, not shown: small tags and cut ends)
# chain: B5 chain with Q47G, V85T, I87S
# B12: SEQ ID NO 237 (designed binder, not shown: small tags and cut ends)
# chain: B5 chain with Q47V, H49A, V85Y, I87S
# B13: SEQ ID NO 219 (designed binder, not shown: small tags and cut ends)
# chain: B5 chain with Q47S, H49K, V85E
# B14: SEQ ID NO 239 (designed binder, not shown: small tags and cut ends)
# chain: B5 chain with H49V, V85Y
# B15: SEQ ID NO 229 (designed binder, not shown: small tags and cut ends)
# chain: B5 chain with H49L, I87H
# B16: SEQ ID NO 236 (designed binder, not shown: small tags and cut ends)
# chain: B5 chain with Q47L, H49Q, V85D, I87E
# B17: SEQ ID NO 234 (designed binder, not shown: small tags and cut ends)
# chain: B5 chain with Q47V, H49V, V85S
# B18: SEQ ID NO 240 (designed binder, not shown: small tags and cut ends)
# chain: B5 chain with Q47S, H49S, V85H, I87K
# B19: SEQ ID NO 212 (designed binder, not shown: small tags and cut ends)
# chain: B5 chain with Q47W, H49A, V85H, I87Q
# B20: SEQ ID NO 218 (designed binder, not shown: small tags and cut ends)
# chain: B5 chain with Q47H, H49V, V85S
# B21: SEQ ID NO 230 (designed binder, not shown: small tags and cut ends)
# chain: B5 chain with Q47W, H49L, I87F
# B22: SEQ ID NO 233 (designed binder, not shown: small tags and cut ends)
# chain: B5 chain with H49F, V85K, I87Y
# B23: SEQ ID NO 217 (designed binder, not shown: small tags and cut ends)
# chain: B5 chain with Q47I, H49E, V85R, I87V
# B24: SEQ ID NO 224 (designed binder, not shown: small tags and cut ends)
# chain: B5 chain with Q47L, H49R, I87E
# B25: SEQ ID NO 216 (designed binder, not shown: small tags and cut ends)
# chain: MLPAPKNLVVSRVTEDSARLSWTAPDAAFDSFYIAYAEPRPDGEAISLSVPGSERSYDLTGLKPGTEYSVLIHGVKGGLLSSPPKFTT
# B26: SEQ ID NO 238 (designed binder, not shown: small tags and cut ends)
# chain: B25 chain with A24T, S47R, S49Q, P84L, K85G
# B27: SEQ ID NO 232 (designed binder, not shown: small tags and cut ends)
# chain: MLPAPKNLVVSRVTEDSARLSWTAPDAAFDSFFIGYLEPQPPGEAIYLDVPGSERSYDLTGLKPGTEYNVTIQGVKGGFPSTFTT
# B28: SEQ ID NO 213 (designed binder, not shown: small tags and cut ends)
# chain: MLPAPKNLVVSRVTEDSARLSWTAPDAAFDSFYIAYAEPRPDGEAILLGVPGSERSYDLTGLKPGTEYSVLIHGVKGGLLSSPLFTT
# B29: SEQ ID NO 221 (designed binder, not shown: small tags and cut ends)
# chain: MLPAPKNLVVSRVTEDSARLSWTAPDAAFDSFFIGYLEPQPPGEAIFLDVPGSERSYDLTGLKPGTEYNVTIQGVKGGFPSPLTAFFTT
# Target: human serum albumin (human) (UniProt P02768)
# Sequence (P02768 25-609 limits assumed): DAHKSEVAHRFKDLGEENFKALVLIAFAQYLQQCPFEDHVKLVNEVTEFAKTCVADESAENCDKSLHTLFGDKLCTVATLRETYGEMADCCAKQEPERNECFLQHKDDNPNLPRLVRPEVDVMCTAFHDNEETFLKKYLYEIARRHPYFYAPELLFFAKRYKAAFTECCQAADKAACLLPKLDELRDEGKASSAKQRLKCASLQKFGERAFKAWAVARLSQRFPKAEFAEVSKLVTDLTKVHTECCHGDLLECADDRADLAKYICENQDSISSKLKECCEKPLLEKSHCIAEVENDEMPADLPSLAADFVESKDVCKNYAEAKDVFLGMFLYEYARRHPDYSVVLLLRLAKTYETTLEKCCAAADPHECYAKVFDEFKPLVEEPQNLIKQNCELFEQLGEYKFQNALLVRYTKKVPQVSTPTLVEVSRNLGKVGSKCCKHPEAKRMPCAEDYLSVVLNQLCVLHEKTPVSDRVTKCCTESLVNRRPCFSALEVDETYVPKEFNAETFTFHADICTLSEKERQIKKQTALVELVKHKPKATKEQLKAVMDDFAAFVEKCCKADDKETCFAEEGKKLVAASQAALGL
# Assay: solution ELISA screen (luminescence)
row,Binder,RLU [RLU]
1,B1,15600
2,B2,20600
3,B3,18300
4,B4,23800
5,B5,13000
6,B6,17000
7,B7,28200
8,B8,30200
9,B9,29600
10,B10,22400
11,B11,16000
12,B12,27700
13,B13,11800
14,B14,21100
15,B15,15400
16,B16,15600
17,B17,20800
18,B18,18000
19,B19,17400
20,B20,14100
21,B21,32000
22,B22,22000
23,B23,16200
24,B24,26200
25,B25,192000
26,B26,99000
27,B27,75400
28,B28,70300
29,B29,59000
